Experimental data published in patent US20170099813.

Assays:
Assay in all cases: cell_activity
[1] = test system: ssSRY1.2 TALEN right monomer (artificial); details: pair with p3; Surveyor day 3, swine fibroblasts
[2] = test system: ssSRY1.1 TALEN left monomer (artificial); details: pair with p2; Surveyor day 3, swine fibroblasts; 46.3% HDR with ssODN
[3] = test system: ssSRY1.3 TALEN right monomer (artificial); details: pair with p5; Surveyor day 3, swine fibroblasts
[4] = test system: ssSRY1.1 TALEN right monomer (artificial); details: pair with p1; Surveyor day 3, swine fibroblasts; 46.3% HDR with ssODN
[5] = test system: ssSRY1.2 TALEN left monomer (artificial); details: pair with p4; Surveyor day 3, swine fibroblasts
[6] = test system: ssSRY1.3 TALEN left monomer (artificial); details: pair with p6; Surveyor day 3, swine fibroblasts

“GCAAGTGGCTGGGATGC (double strand) [ssSRY1.2 right half-site]” showed an activity [1] of 35 % NHEJ.

For “GAACGCTTTCATTGTG (double strand) [ssSRY1.1 left half-site]”, the activity [2] was 30 % NHEJ.

Sequence “TTACAGAAGCCGAAA (double strand) [ssSRY1.3 right half-site]” has an activity [3] of 16.2 % NHEJ.

With “GGAGAAAAGTGGCTCT (double strand) [ssSRY1.1 right half-site]” the activity [4] was 30 % NHEJ.

Work on “AGAGAACCCTCAAATG (double strand) [ssSRY1.2 left half-site]” yielded an activity [5] of 35 % NHEJ.

For “CAGCAAGTGGCTGGGA (double strand) [ssSRY1.3 left half-site]”, the activity [6] was 16.2 % NHEJ.
